The source of these data is publication PMC8673750 (Cell Reports, 2021).

Experiment [1] addresses SARS-CoV-2 S glycoprotein, original Wuhan-Hu-1 strain (WT), full-length, on 293T cells (SARS-CoV-2, UniProt P0DTC2). In words: flow cytometry on cells. (Flow cytometry measures light scatter and fluorescence of single cells or particles in a stream.)
The target in another experiment is T1, Peptide #288 15-mer (SARS-CoV-2, Wuhan-Hu-1).
T1 chain: KEELDKYFKNHTSPD
Description: ELISA. (In general: An ELISA detects its analyte on a solid surface through an enzyme-linked reagent.)

Another experiment deals with T2, Peptide #289 11-mer (SARS-CoV-2, Wuhan-Hu-1).
T2 chain: DKYFKNHTSPD
Description: SPR. On the technique in general: In SPR one partner is held on a chip, and binding of the other changes the refractive index at the surface.

B1: CV3-1 IgG (antibody, V domains shown)
VH: EVQLVESGPEVKKPGTSVKVPCKASGFTFTSSAVQWVRQARGQRLEWIGWIVVGSGNTNYAQKFQERVTITRDMSTSTAYMELSSLRSEDTAVYYCAAPSCSGGRCYDGFDIWGQGTMVTVSS
VL: not shown
On to B1, for which the binding result in experiment [1] is given as “binds”.

B2: CV3-25 IgG (antibody, V domains shown)
VH: EVQLVESGAEVKKPGESLKISCKGSGYTFTRYWIGWVRQMPGKGLEWMGIIYPGDSDTRYSPSFQGHVTISADKSISTAYLQWNSLKASDTAMYYCARLPQYCSNGVCQRWFDPWGQGTLVTVSS
VL: EIVLTQSPSSVSASVGDRVTITCRASQGISSWLAWYQQKPGKAPKLLIYAASSLQSGVPSRFSGSGSGTDFTLTISSLQPEDFATYYCQQGNSFPYTFGQGTNLEIK
B2: in the experiment with Peptide #288 15-mer, the binding result is listed as “binds”. In the experiment with Peptide #289 11-mer, the Kd was around 1 µM.

One may read the Kd as the free concentration of one partner at which half of the binding sites on the other are occupied at equilibrium, for simple one-to-one binding.
